Reference: paper doi:10.1101/444885 (bioRxiv, 2018)
Where two headings read alike, the source gives them in different places.

B4: DnaA(N191C/A198C) (natural protein)
chain: MENILDLWNQALAQIEKKLSKPSFETWMKSTKAHSLQGDTLTITAPNEFARDWLESRYLHLIADTIYELTGEELSIKFVIPQNQDVEDFMPKPQVKKAVKEDTSDFPQNMLNPKYTFDTFVIGSGNRFAHAASLAVAEAPAKAYNPLFIYGGVGLGKTHLMHAIGHYVIDHNPSAKVVYLSSEKFTNEFICSIRDNKCVDFRNRYRNVDVLLIDDIQFLAGKEQTQEEFFHTFNTLHEESKQIVISSDRPPKEIPTLEDRLRSRFEWGLITDITPPDLETRIAILRKKAKAEGLDIPNEVMLYIANQIDSNIRELEGALIRVVAYSSLINKDINADLAAEALKDIIPSSKPKVITIKEIQRVVGQQFNIKLEDFKAKKRTKSVAFPRQIAMYLSREMTDSSLPKIGEEFGGRDHTTVIHAHEKISKLLADDEQLQQHVKEIKEQLK
B6: DnaA domain I (residues 1-81) (domain or fragment)
chain: MENILDLWNQALAQIEKKLSKPSFETWMKSTKAHSLQGDTLTITAPNEFARDWLESRYLHLIADTIYELTGEELSIKFVIP

What was measured:
[1] = target: B6; test: NMR titration
DnaA(N191C/A198C) = target: B4; test: loss and rescue of BMOE cross-linking of DnaA-DNA filaments
FRET or BRET = target: the molecule itself; test: FRET or BRET
cross-linking = target: the molecule itself; test: cross-linking
[2] = target: T1, DnaD DDBH2 domain (residues 129-232) (Bacillus subtilis, UniProt P39787 129-232); test: NMR titration
T1 sequence: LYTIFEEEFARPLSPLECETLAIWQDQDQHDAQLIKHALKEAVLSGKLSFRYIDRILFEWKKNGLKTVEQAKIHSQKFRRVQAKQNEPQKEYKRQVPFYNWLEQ

[3] = target: T1, DnaD DDBH2 domain (residues 129-232); test: NMR titration; remark: listed apart in the source

B1: truncated DnaD DDBH2 domain (residues 129-196) (domain or fragment)
chain: LYTIFEEEFARPLSPLECETLAIWQDQDQHDAQLIKHALKEAVLSGKLSFRYIDRILFEWKKNGLKTV
B1: binds [1].

B2: DnaD (full length) (natural protein)
chain: MKKQQFIDMQEQGTSTIPNLLLTHYKQLGLNETELILLLKIKMHLEKGSYFPTPNQLQEGMSISVEECTNRLRMFIQKGFLFIEECEDQNGIKFEKYSLQPLWGKLYEYIQLAQNQTQERKAEGEQKSLYTIFEEEFARPLSPLECETLAIWQDQDQHDAQLIKHALKEAVLSGKLSFRYIDRILFEWKKNGLKTVEQAKIHSQKFRRVQAKQNEPQKEYKRQVPFYNWLEQ
B2: binds (DnaA(N191C/A198C)).

B3: DnaA N191C, labelled with Cy3B or Atto647N (natural protein)
chain: MENILDLWNQALAQIEKKLSKPSFETWMKSTKAHSLQGDTLTITAPNEFARDWLESRYLHLIADTIYELTGEELSIKFVIPQNQDVEDFMPKPQVKKAVKEDTSDFPQNMLNPKYTFDTFVIGSGNRFAHAASLAVAEAPAKAYNPLFIYGGVGLGKTHLMHAIGHYVIDHNPSAKVVYLSSEKFTNEFICSIRDNKAVDFRNRYRNVDVLLIDDIQFLAGKEQTQEEFFHTFNTLHEESKQIVISSDRPPKEIPTLEDRLRSRFEWGLITDITPPDLETRIAILRKKAKAEGLDIPNEVMLYIANQIDSNIRELEGALIRVVAYSSLINKDINADLAAEALKDIIPSSKPKVITIKEIQRVVGQQFNIKLEDFKAKKRTKSVAFPRQIAMYLSREMTDSSLPKIGEEFGGRDHTTVIHAHEKISKLLADDEQLQQHVKEIKEQLK
B3: binds (FRET or BRET).

B4: binds (cross-linking).

B5: DnaA A198C, labelled with Cy3B or Atto647N (natural protein)
chain: MENILDLWNQALAQIEKKLSKPSFETWMKSTKAHSLQGDTLTITAPNEFARDWLESRYLHLIADTIYELTGEELSIKFVIPQNQDVEDFMPKPQVKKAVKEDTSDFPQNMLNPKYTFDTFVIGSGNRFAHAASLAVAEAPAKAYNPLFIYGGVGLGKTHLMHAIGHYVIDHNPSAKVVYLSSEKFTNEFINSIRDNKCVDFRNRYRNVDVLLIDDIQFLAGKEQTQEEFFHTFNTLHEESKQIVISSDRPPKEIPTLEDRLRSRFEWGLITDITPPDLETRIAILRKKAKAEGLDIPNEVMLYIANQIDSNIRELEGALIRVVAYSSLINKDINADLAAEALKDIIPSSKPKVITIKEIQRVVGQQFNIKLEDFKAKKRTKSVAFPRQIAMYLSREMTDSSLPKIGEEFGGRDHTTVIHAHEKISKLLADDEQLQQHVKEIKEQLK
modifications: Cy3B-maleimide or Atto647N-maleimide on the cysteine at 198
B5: binds (FRET or BRET).

B6 was tested, and the Kd [2] was 665 ± 251 µM and the Kd [3] was 768 ± 168 µM.
